This note sets out measurements from paper PMC6504924 (2019).

Assay [1] deals with T1, NanoLuc:PDGFRβ fusion on cells (UniProt P09619 33-1106).
Assay [2] addresses T1, NanoLuc:PDGFRβ fusion on cells. This is another data set of the same source.
Assay [3] shares this target. The experiment in a line: competition with CBT-labeled PDGF-BB.
Assay [4] has the same target. Put plainly: competition with CBT-labeled PDGF-BB. This is another data set of the same source.
Assay [5] deals with T2, NanoLuc:EGFR fusion on cells (UniProt P00533 25-1210).
The target of assay [6] is T2, NanoLuc:EGFR fusion on cells. The source holds these as a separate data set.
The target is the same in assay [7]. Put plainly: competition with CBT-labeled EGF.
Assay [8] shares this target. The experiment in a line: competition with CBT-labeled EGF. The source holds these as a separate data set.
The target of assay [9] is T3, NanoLuc:VEGFR2 fusion on cells (UniProt P35968 20-1356). The experiment in a line: competition with CBT-labeled VEGF165a.
T3 sequence (P35968 20-1356): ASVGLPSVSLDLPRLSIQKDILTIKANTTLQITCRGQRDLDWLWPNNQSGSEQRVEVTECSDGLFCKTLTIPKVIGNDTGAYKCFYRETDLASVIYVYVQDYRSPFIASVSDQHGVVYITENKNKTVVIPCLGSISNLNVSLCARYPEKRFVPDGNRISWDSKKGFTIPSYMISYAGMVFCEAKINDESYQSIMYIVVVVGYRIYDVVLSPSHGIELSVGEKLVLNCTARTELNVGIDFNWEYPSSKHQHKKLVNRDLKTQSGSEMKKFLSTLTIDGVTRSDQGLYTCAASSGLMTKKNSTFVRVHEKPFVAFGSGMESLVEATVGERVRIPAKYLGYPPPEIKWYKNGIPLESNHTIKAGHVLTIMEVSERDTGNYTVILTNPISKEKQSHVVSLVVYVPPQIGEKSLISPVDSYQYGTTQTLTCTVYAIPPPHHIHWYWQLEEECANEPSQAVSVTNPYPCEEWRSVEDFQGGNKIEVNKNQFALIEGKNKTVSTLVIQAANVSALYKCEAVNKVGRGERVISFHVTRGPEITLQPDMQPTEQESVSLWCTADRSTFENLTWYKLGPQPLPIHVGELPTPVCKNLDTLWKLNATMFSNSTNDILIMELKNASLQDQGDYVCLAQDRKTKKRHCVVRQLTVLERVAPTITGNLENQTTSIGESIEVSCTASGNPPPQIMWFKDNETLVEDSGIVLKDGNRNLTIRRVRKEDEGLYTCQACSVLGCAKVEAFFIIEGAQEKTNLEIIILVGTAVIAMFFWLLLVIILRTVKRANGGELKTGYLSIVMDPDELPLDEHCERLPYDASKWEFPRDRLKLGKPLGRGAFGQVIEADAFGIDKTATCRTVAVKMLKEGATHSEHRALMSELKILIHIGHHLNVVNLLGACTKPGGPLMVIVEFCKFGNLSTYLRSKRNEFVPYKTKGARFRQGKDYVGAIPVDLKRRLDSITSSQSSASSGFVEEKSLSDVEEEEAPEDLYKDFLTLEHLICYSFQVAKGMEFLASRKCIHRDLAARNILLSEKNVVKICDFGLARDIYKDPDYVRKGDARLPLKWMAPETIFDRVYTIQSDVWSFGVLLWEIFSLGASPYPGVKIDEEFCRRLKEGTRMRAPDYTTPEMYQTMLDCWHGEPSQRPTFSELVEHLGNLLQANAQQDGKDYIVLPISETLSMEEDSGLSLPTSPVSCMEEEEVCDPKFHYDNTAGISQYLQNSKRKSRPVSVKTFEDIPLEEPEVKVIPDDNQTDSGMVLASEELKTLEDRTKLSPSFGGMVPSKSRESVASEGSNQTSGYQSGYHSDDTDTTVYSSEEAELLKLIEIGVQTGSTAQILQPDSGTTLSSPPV
Assay [10] deals with T3, NanoLuc:VEGFR2 fusion on cells. Put plainly: competition with CBT-labeled VEGF165a. This is another data set of the same source.
Assay [11] has the same target.

As a reminder, the EC50 is the concentration giving half of the maximal effect. Lower therefore signals greater potency. One may read the Kd as the free concentration of one partner at which half of the binding sites on the other are occupied at equilibrium, for simple one-to-one binding. Low readings indicate a tighter complex, high ones a looser complex. By IC50 is commonly meant the midpoint of a concentration-inhibition curve. A lower IC50 goes with higher potency. By Ki is commonly meant the equilibrium dissociation constant of an inhibitor or competing ligand from its target. A higher Ki goes with lower affinity.

T1 sequence (P09619 33-1106): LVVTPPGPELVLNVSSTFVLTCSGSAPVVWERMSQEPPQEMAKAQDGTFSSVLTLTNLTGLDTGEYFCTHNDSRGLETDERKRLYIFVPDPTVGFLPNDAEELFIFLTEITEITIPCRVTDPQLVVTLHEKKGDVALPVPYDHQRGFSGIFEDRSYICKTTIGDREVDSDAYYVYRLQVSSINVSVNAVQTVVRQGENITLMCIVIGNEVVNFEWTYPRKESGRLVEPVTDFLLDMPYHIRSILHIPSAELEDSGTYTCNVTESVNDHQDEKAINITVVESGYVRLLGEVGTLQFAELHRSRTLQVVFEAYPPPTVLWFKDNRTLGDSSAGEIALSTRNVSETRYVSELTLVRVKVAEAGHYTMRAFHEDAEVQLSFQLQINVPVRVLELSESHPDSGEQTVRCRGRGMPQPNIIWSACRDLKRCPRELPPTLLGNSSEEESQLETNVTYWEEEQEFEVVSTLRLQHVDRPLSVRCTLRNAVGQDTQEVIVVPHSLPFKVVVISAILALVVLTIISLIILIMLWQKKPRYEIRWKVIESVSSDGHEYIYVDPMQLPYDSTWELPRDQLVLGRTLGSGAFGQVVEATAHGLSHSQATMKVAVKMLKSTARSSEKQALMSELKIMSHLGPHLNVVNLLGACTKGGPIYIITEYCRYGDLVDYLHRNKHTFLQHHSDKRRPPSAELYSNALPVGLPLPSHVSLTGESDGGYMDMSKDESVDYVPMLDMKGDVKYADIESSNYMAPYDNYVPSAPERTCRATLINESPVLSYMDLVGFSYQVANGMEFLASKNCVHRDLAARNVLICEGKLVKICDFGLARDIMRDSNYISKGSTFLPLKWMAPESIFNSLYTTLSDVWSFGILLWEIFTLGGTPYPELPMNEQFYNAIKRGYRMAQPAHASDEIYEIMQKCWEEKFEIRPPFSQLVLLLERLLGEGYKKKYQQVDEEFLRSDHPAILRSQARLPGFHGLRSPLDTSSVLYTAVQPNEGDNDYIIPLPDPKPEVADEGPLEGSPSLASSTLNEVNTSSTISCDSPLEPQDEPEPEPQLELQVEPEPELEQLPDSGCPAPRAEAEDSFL

B1: CBT-labeled PDGF-BB homodimer (platelet-derived growth factor labeled with DY605-PEG-CBT on the N-terminal cysteine) (ligand)
chain: CDNSLGSLTIAEPAMIAECKTRTEVFEISRRLIDRTNANFLVWPPCVEVQRCSGCCNNRNVQCRPTQVQLRPVQVRKIEIVRKKPIFKKATVTLEDHLACKCETVAAARPVT
modifications: DY605-PEG-CBT on the N-terminal cysteine (>=95% efficiency)
In assay [1], B1 displayed an EC50 of 0.068 nM. Also, the Kd in assay [2] amounted to 0.062 nM.

B2: unlabeled PDGF-BB homodimer purified in the same manner (with CDN N-terminal appendage) (ligand)
chain: CDNSLGSLTIAEPAMIAECKTRTEVFEISRRLIDRTNANFLVWPPCVEVQRCSGCCNNRNVQCRPTQVQLRPVQVRKIEIVRKKPIFKKATVTLEDHLACKCETVAAARPVT
B2 returned a half-maximal inhibitory concentration (IC50) in [3] of 0.11 nM. In assay [4], this molecule returned a Ki of 0.044 nM.

B3: CBT-labeled EGF (epidermal growth factor labeled with DY605-PEG-CBT on the N-terminal cysteine) (ligand)
chain: CDNNSDSECPLSHDGYCLHDGVCMYIEALDKYACNCVVGYIGERCQYRDLKWWELR
modifications: DY605-PEG-CBT on the N-terminal cysteine (>=95% efficiency)
With B3, the EC50 in [5] is 0.13 nM. In addition, the equilibrium dissociation constant (Kd) in assay [6] was determined as 0.16 nM.

B4: EGF labeled with 5-fold molar excess of DY605-NHS-ester (ligand)
chain: CDNNSDSECPLSHDGYCLHDGVCMYIEALDKYACNCVVGYIGERCQYRDLKWWELR
modifications: DY605-NHS-ester on multiple lysines and on the N-terminus, heterogeneous (0-2 fluorophores per protein)
Regarding B4, in assay [5], the half-maximal effective concentration (EC50) stood at 0.25 nM.

B5: EGF labeled with 2-fold molar excess of DY605-NHS-ester (ligand)
chain: CDNNSDSECPLSHDGYCLHDGVCMYIEALDKYACNCVVGYIGERCQYRDLKWWELR
modifications: DY605-NHS-ester on multiple lysines and on the N-terminus, heterogeneous (0-2 fluorophores per protein)
In the case of B5, the midpoint of the response in assay [5], the EC50, lay at 0.16 nM.

B6: unlabeled EGF purified in the same manner (with CDN N-terminal appendage) (ligand)
chain: CDNNSDSECPLSHDGYCLHDGVCMYIEALDKYACNCVVGYIGERCQYRDLKWWELR
modifications: not fully specified
With B6, the IC50 in assay [7] stood at 0.35 nM. Besides, in assay [8], the Ki was 0.15 nM.

B7: unlabeled VEGF165a homodimer purified in the same manner (with CDN N-terminal appendage) (ligand)
chain: CDNAPMAEGGGQNHHEVVKFMDVYQRSYCHPIETLVDIFQEYPDEIEYIFKPSCVPLMRCGGCCNDEGLECVPTEESNITMQIMRIKPHQGQHIGEMSFLQHNKCECRPKKDRARQENPCGPCSERRKHLFVQDPQTCKCSCKNTDSRCKARQLELNERTCRCDKPRR
modifications: disulfide-linked homodimer; unlabeled; mature VEGF165 limits by convention (191-aa AUG-initiated isoform precursor, signal 1-26)
Regarding B7, the IC50 in assay [9] was 0.12 nM. In assay [10], this molecule yielded a Ki of 0.047 nM.

B8: CBT-labeled VEGF165a homodimer (vascular endothelial growth factor isoform VEGF165a labeled with DY605-PEG-CBT on the N-terminal cysteine) (ligand)
chain: CDNAPMAEGGGQNHHEVVKFMDVYQRSYCHPIETLVDIFQEYPDEIEYIFKPSCVPLMRCGGCCNDEGLECVPTEESNITMQIMRIKPHQGQHIGEMSFLQHNKCECRPKKDRARQENPCGPCSERRKHLFVQDPQTCKCSCKNTDSRCKARQLELNERTCRCDKPRR
modifications: DY605-PEG-CBT on the N-terminal cysteine (>=95% efficiency)
B8: in assay [11], binding was put at a Kd of 0.049 nM.
